According to the nanobody polyreactivity screen of Harvey et al. (2022):

Assay: yeast display, Sf9 membrane polyspecificity reagent, FACS + sequencing; frameworks hold sequencing errors
Method in brief: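 Synthetic nanobody libraries on Saccharomyces cerevisiae BJ5465 were galactose-induced for 36–48 hours, stained 1 hour at 4 °C with 10% biotinylated, detergent-solubilized Sf9 membrane reagent and enriched on streptavidin microbeads. FACS then separated cells into low and high (top ~1%) gates by anti-HA (expression) and streptavidin (reagent binding) fluorescence. Genes were colony-PCR amplified, MiSeq 2 × 250 sequenced and CDR-length filtered. A clone's polyreactivity label is that of its gate of origin.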

Row | Sequence | polyreactivity (PSR sort gate)
1 | QVQLVESGGGLVQAGGSLRLTCAASGLTFGFNAMGWYRQAPGKERELVAAISSRGGSTYYADSVKGRFTISRDNAKNTVYLQMNSLKPEDTAVYYCAVRYYSPYGYWGQGTQVTVSS | low polyreactivity
2 | QVQLVETGGGLVQAGGSLRLSCAASGSIFGFYAMGWYRQAPGKERELVAAIDSGDSTNYADSVKGRFTISRDNAKNTVYLQMNSLKPEDTAVYYCYAEAWWYFWFDYWGQGTQVTVSS | low polyreactivity
3 | QVQLVESGGGLVQAGGSLRLSCAASGFTILRYAMGWYRQAPGKERDLVAAISTSGGSTSYADSVKGRFTISRDNAKNTVYVQMYSLKPEDSAVYYCKAVLYKAYWQLYDYWGQGSQVTVSS | high polyreactivity
4 | QVQLVESGGGLVQAGGSLRLSCAASGNIFNYNAMGWYRQATGNERELVAAISFSGGSTYYADSVKARFTISRDNAQNTVYLQMNSLKPEDTAVYYCAKAERNYFEYWGQGTQVTVSS | high polyreactivity
5 | QVQLVESGGGLVQAGGSLRLSCAASGRTFYNYAMGWYRQAPGKERELVAAITRGGSTYYADSVKGRFTISRDNAKNTVYLQMNSLKPEDTAVYYCNAYYYIPFEGRGYSKLDYWGQGTQVTVSS | high polyreactivity
6 | QVQLVESGGRLVQAGGSLRLSCAASGSTIYPNAMGWYRPAPGTERELVAGITTIGGSTYYADSVKGRFTISRDNAKNTVYLQMNSLKPEDTAVYYCAARWTFSTWIGFDYWGQGTQVTVSS | low polyreactivity
7 | QVQLVESGGGLVQAGGRLRLSCAASGSIFDRNAMGLYRQAPGKESELVATITWYGVSTYYADSVKGRFTISRDNAKNTVYLQMNSLKPEDTAVYYCNADYSYRHWYDPGHYGEAMGYWGQGTQVTVSS | low polyreactivity
8 | QVQLVESGGGLVQAGGSLRLSCAASGLTFSFNAMGWYRQAPGKEREFVAAISWSGGSTYYADSVKGRFTISRDNAKITVYLQMNSLKPEDTAVYYCAAESRITRYRHTRYYYWGQGTQVTVSS | high polyreactivity
9 | QVQLVESGGGLVQAGGSLRLSCAASGSTFIDYDMGWYRQAPGKERELVAAITSSGSTYYADSVKGRFTISRDNAKNTVYLQMNSLKPEDTAVYYCNARVGPELHDYWGQGTQVTVSS | low polyreactivity
10 | QVQLVESGGGLVQAGGSLRLSCAASGRTFDGYAMGWYRQAPGKERELVAAISGSGGRTYYADSVKGRFTISRDNAKNTVYLQMNSLKPEVTAVYYCRGYYKYYPDEYDYWGQGTQVTVSS | high polyreactivity
11 | QVQLVESGGGLVQAGGSLRLSCAASGIIFDSYAMGWYRQAPGKERELVAAITSDSGRTYYADSVKGRFTISRDNAKNTVYLQMNSLKPEDTAVYYCAKRWDGPYDYWGHGTQVTVSS | low polyreactivity
12 | QVQLVESGGCLVQAGGSLRLSCAASGSINRSYAMAWYRQAPGKDWELVASISRRGGSTYYADSVKGRFTISRDNAKNSVYLQMNRLKPEDSAVYYCAAVRYNSRVSTTPSEMYYWGQGTQVTVSS | low polyreactivity
13 | QVQLVESGGGLVQAGGSLRLSCAASGSTFYKYAMGWYRQAPGKERELVASITWSGTSTYYADSVKGRFTISRDNAKNTVYLQMNSLKPEDTAVYYCNAGLEYYYWGYTWEFDYWGQGTQVTVSS | low polyreactivity
14 | QVQLVESGGGLVQAGGSLRLSCAASGITFPDYAMGWYRQAPGKERELVASISDSGGNTYYADSVKGRFTISRDNAKNTVYLQMNSLKPEDTAVYYCAVDSWYYYIVLYDYWGQGTQVTVSS | high polyreactivity
15 | QVQLVESGGGLVQAGGSLRLSCAATGRTFSSYAMGWYRQAPGKEREFLARISSSRGRTSYADSVKGRFTISRDNAKNTVYVQMNSLKPEDTAVYYCAARPPYRVGIVPLGRREYYWGRGTQVTVSS | high polyreactivity
16 | QVQLVESGGGLVQAGGSLRLSCAASGSIFTRYAMGGYRQAPGKERELVAAITAGGSSPYYADSVKGRFTISRDNAKNTVYLQMNSLKPEDTAVYYCNAVWWHPTDYDYWGQGSQVTVSS | low polyreactivity
17 | QVQLVESGGGLVQAGGSLRLSCAASGRISLFNAMGWYRQAPGKERELVAAITYTGGSTYYADSVKGRFTISRDNAKNTVYLQMNSLKPEDTAVYYCAAEYYYVYTYDYWGQGTQVTVSS | high polyreactivity
18 | QVQLVESGGGLVQAGGSLRLSCAASGSTFPSNAMGWYRQAPGKERELVAAISSGGRTYYADSVKGRFTISRDNAKNTVYLQMKSLKPEDTAVYYCAADTDRRSPFDYWGQGTQVTVSS | high polyreactivity
19 | QVQLVESGGGLVQAGGSLRLSCAASGIIFPWYDMGWYRQAPGKERELVAGITDGGDTTYADSVKWRFTISRDNAKNTVYLQMNSLKPEDTAVYYCAADIGYGYWHFDYWGQGTQVTVSS | low polyreactivity
20 | QVQLVESGGGLVQAGGSLRLSCAASGSIFDFYAMGWYRQAPGKERELVADISSSDGSTSYADSVKGRFTISRDNAKNTVYLQLNSLKPEDTAVYYCAASQLFGWFPYDYWGQGTQVTVSS | high polyreactivity
21 | QVQVEESGGGVVQAGGSLRLSCAAYGRIFFRNAMGWYRPAPGKERELVAVINTGGSTNYADSVKGRFTISRDNAKNTVYLQMNRLKAEDTAVYYCAVDRASRRTYNQYGYWGQGTQVSVSS | high polyreactivity
22 | QVQLVDSGGGLVQAGGSLRLSCDATGRIFRLYAMGWYRQAPGKERELVAAISWRGSSTNYADSVKGRFTISRDNAKNTVYLQRNSLKPEDTAVYYCAAPGRGGYYYWGQGTQVTVSS | high polyreactivity

Row | Sequence | polyreactivity (PSR sort gate)
23 | QVQLVESGGGLVQAGGSLRLSCAASGSIFTLYAMGWYRQAPGKERELVATINWSGGSTSYADSVKGRFTISRDNAKNTVYLQMNSLKPEDTAVYYCAADYYFWHGTGYDYWGQGTQVTVSS | low polyreactivity
24 | QVQLVESGGVLVQAGGSLRLSCAASGFIFKYYAMGWYRQATGKERDLVAAISSSGGRKYYADSVKGRFTISRDNAKNTVYLHMNRLKPEDTAVYYCNKATFVTYYFLGYDYWGQGTQVTVSS | high polyreactivity
25 | QVQLVESGGGLVQAGGSLRLSCAASGSTIYDNAMGWSRQAPGKERELVAAITWSVGRTYYADSVKGRFTISRDNAKNTVYLQMNSLKPEDTAVYYCAARYQYYSTYGVTLDYWGQGTQVTVSS | low polyreactivity
26 | QFQLVESGGGLVQAGGSLRLSCAASGLIFRIYAMGWYRQAPGKEREFVAAIRWRGGSTYYADSVKGRFTISRDNAKYTVYLQMNSLKPEDTAVYYCAVRSCPYRPRLDYWGQGTQVTVSS | high polyreactivity
27 | QVQLVESGGGLVQAGGSLRLSCAASGRTFVRNTMGWYRQAPGKERELVAAISGGGSTYYADSVKGRFTISRDNAKNTVYLQMNSLKPEDTAVYYCAATTRRQGGKRFDYWGQGTQVTVSS | high polyreactivity
28 | QVQLVESGGGLVQAGGSLRLSCAASGSTLARNVMGWYRQAPGKERELVAAISTSGGITYYADSVKGRFTISRDNAKNTVYLQMNSLKPEDTADYYCAKYYYNPYSKMDYWGQGTQVTVSS | low polyreactivity
29 | QVQLVESGGGLVQAGGSLRLSCAASGSTFQQYAMGWYRQAPGKEREFVARISYGGGSTYYADSVKGRFTISRDNAKNTVYLQMNSLKPEDTAVYYCNAVRKGYYRWVFQNRYYYWGQGTQVTVSS | high polyreactivity
30 | QVQLQESGGGLVQACGSLRLSCAASGYISHADEMGWYRQAPGKEHELVASISNGGSTNYADSVKGRFTMSRDNAKNTVYLQMNSLKSEDTAVYYCAAWTGQVDIHYYWGQGTKVTVSS | low polyreactivity
31 | QVQLVESGGGLVQAGGSLRLSCAASGRISRSNTMGWYRQGPGKERELVAAISRGGGSTYYADSVKGRFTISRDNAKNTVYLQMNSLKPEDTAVDYCAKAFRGHYWRQGTQVTVSS | high polyreactivity
32 | QVQLVESGGGLVQAGGSLRLSCAASGSIFTWYAMGWYRQAPGKERELVAAISEDGGSTYYADSVKGRFTISRDNAKNTVYLQMNSLKPEDTAVYYCATPVASVTGYDYWGQGTQVTVSS | low polyreactivity
33 | QVQLVETGGGLVQAGVSLRLSCAASGRIFEVNVMGWYRQAPGKERELVAAITTGGGSTYYADSVKGRFTISRDNAKNTVYLQMNSLKPEDTAVYYCATDYSSYLYDYYTGVGGYDYWGQGTQVTVSS | low polyreactivity
34 | QVQLVESGGGLVQAGGSLRLSCAASGSTLHEYAMGWSIQAPGKERELVAAISRGGGNTNYADSVKGRFTISRDNAKNTVYLQMNSLKPEDTAVYYCNARHGKIIFYLERYDYWGQGTQVTVSS | low polyreactivity
35 | QVQLVESGGGLVQAGGSLRLSCAASGSIFYYYGMGWYRQAPGKESDLVARISKSVGRTYYADSVKGRFTISRDNAKNTVYLQMNSLKPEDTAVYYCAASRSFQGNRYDYWGQGTQVTVSS | high polyreactivity
36 | QVQLVESGGGIVKAGGSLRISCAASGSTFIVNAMGWYRQAPGKERELVAAITEDGDTTYYADSVKGRFTISRDNAKNTVYLQMNSLKPEDTAVYFCAAETYYLDDYWGQGTQVTVSS | high polyreactivity
37 | QVQLVESGGGLVQAGGSLRLSCAASGRTFNSNAMGWYRQAPGKERELVAAISGRTGRTYYADSVKGRFTISRDNAKNTVYLQMNSLKPEDTAVYYCATGTYAAAQGTRYYYWGQGTQVTVSS | high polyreactivity
38 | QVQLVESGRGLVQAGGSLRLSCHASGFTFSPYTMGWSRQAPGKERELVATIRYDCTSTYYADSVKGRFTISRDNAKNTVYLQMNSLKPEDTAVYYCAADIWRVYSTFYYWGQGTEVTVSS | low polyreactivity
39 | QVQLVESGGGLVQAGGSLRLSCAASGRTFWIYAMGWYRQAPGKERELVAAISRGGSTYADSVKGRFTISRDNAKNTVYLQMNSLKPEDTAVYYCAASTPQYQYYYWGQGTQVTVSS | high polyreactivity
40 | QVQLVESGGGLVQAGGSLRLSCAASGITFGSYAMGWYRHAPGKERELVAAIRWRGGNTYYADSVKGRFTISRDNAKNTVYLQMNSLKPEDTAVYSCAARRYGYRYDQPYYNDYWGQGTQVTVSS | low polyreactivity
41 | QVQLVESGGGLVQAGGSLRLSCAASGLTFSSNAMGWSRQAPGKERELVAVITNGGSTNYADSVKGRFTISRDNAKNTVYLQMNSLKPEDTAVYYCAKDGGPAQDIGMDYWGQGTQVTVSS | low polyreactivity
42 | QVQLVESCGGLVQAGGSLRLSCAASGSIFGTNAMGWYRQAPGKERELVASITRGGSTNYADSVKGRFTISRDNAKNTVYLQMNSLTPEDTAVYYCNAQGHWRWWGYDYWGQGTQVTVSS | low polyreactivity
43 | QVQLVESGGGLVQAGGSLRLSCAASGSTFGTYAMGWSRQAPGKERELVAAITSGGSTDYADSVKGRFTISRDNAKNTVYLQMNSLKPEDTAVYYCNATWELLSYYYLFWGYDYWGQGTQVTVSS | low polyreactivity
